Test results taken from article PMC9342958.

B1: BCL10 full-length fused to mEos3.1 [human] / itself (parent)
chain: MEPTAPSLTEEDLTEVKKDALENLRVYLCEKIIAERHFDHLRAKKILSREDTEEISCRTSSRKRAGKLLDYLQENPKGLDTLVESIRREKTQNFLIQKITDEVLKLRNIKLEHLKGLKCSSCEPFPDGATNNLSRSNSDESNFSEKLRASTVMYHPEGESSTTPFFSTNSSLNLPVLEVGRTENTIFSSTTLPRPGDPGAPPLPPDLQLEEEGTCANSSEMFLPLRSRTVSRQ

Variants of: B1
Assay: DAmFRET (Weibull fit) in yeast cells, homotypic self-assembly
Settings: with itself; read off a plot

| Variant | screen value |
| --- | --- |
| chain 1 R58L | 0.35 |
| chain 1 R58Q | 0.38 |
| chain 1 R58G | 0.34 |
